# Experimental data published in publication PMC8390433.
# Biological target: Arc (Activity-regulated cytoskeleton-associated protein, Arg3.1) (UniProt Q9WV31)
# Assay: dynamic light scattering, 20°C and 30°C
# Conditions: reference: wild type Arc; sites T278
substance,measurement,value
"Arc (Activity-regulated cytoskeleton-associated protein, Arg3.1) (from UniProt Q9WV31) T278D",other: DLS large-species diameter (share) at 30°C,stronger; reference 333.00± 68.4 (74%)
